The values below come from patent US20030059769, “High affinity nucleic acid ligands to lectins” (published 2003).

For data set [1], the target named is T1, P-selectin (PS-Rg) (Homo sapiens, UniProt P16109 P16109:42-321). The experiment in a line: inhibition; sialyl-LewisX; text says about 2 nM. To be noted: tags: human IgG Fc fusion; chain copies: 2 (stated dimer). As for the experimental part:
(§1) The ability of evolved RNA pools or cloned ligands to inhibit the binding of PS-Rg to sialyl-Lewis^x was tested in competitive ELISA assays (C. Foxall et al., 1992, supra). For these assays, the wells of Corning (25801) 96 well microtiter plates were coated with 100 ng of a sialyl-Lewis^x/BSA conjugate, air dried overnight, washed with 300 μl of PBS(−) and then blocked with 1% BSA in HSMC for 60 min at room temperature. RNA ligands were incubated with PS-Rg in HSMC/1% BSA at room temperature for 15 min. After removal of the blocking solution, 50 μl of PS-Rg (10 nM) or a PS-Rg (10 nM)/RNA ligand mix was added to the coated, blocked wells and incubated at room temperature for 60 minutes. The binding solution was removed, wells were washed with 300 μl of PBS(−) and then probed with HRP conjugated anti-human IgG, at room temperature to quantitate PS-Rg binding. After a 30 minute incubation at room temperature in the dark with OPD peroxidase substrate (Sigma P9187), the extent of PS-Rg binding and percent inhibition was determined from the OD₄₅₀.

Data set [2] has as its target T2, L-selectin (LS-Rg) (Homo sapiens, UniProt P14151 P14151:39-332).
T2 sequence: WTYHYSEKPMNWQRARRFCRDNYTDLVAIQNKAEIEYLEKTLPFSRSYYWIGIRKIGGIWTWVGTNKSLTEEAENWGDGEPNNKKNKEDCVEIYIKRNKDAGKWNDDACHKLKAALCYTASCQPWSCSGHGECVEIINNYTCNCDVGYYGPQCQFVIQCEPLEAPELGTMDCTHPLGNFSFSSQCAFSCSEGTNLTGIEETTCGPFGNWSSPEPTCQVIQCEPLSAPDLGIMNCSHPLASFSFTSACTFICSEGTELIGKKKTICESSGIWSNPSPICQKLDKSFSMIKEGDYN
The experiment in a line: filter; affinity reduction versus full length LF1514. To be noted: tags: human IgG2 Fc fusion; chain copies: 2 (stated dimer). How it is done: (§2) As described in SELEX Patent Applications, a nitrocellulose filter partitioning method was used to determine the affinity of RNA ligands for LS-Rg and for other proteins. Filter discs (nitrocellulose/cellulose acetate mixed matrix, 0.45 μm pore size, Millipore) were placed on a vacuum manifold and washed with 3 ml of SHMCK 140 buffer under vacuum. Reaction mixtures, containing ³²P labeled RNA pools and unlabeled LS-Rg, were incubated in SHMCK 140 for 10-20 min at 37° C., and then immediately washed with 3 ml SHMCK 140. The filters were air-dried and counted in a Beckman LS6500 liquid scintillation counter without fluor. Alternatively, binding studies employed 96 well micro-titer manifolds essentially as described in Example 13, paragraph E.
(§3) Predictions of minimal high affinity sequences for family 1 ligands can be made and serve as a partial test of the postulated secondary structure.

Data set [3] deals with T3, L-selectin on PBMC / lymphocytes (Homo sapiens, UniProt P14151 P14151:39-372).
T3 sequence: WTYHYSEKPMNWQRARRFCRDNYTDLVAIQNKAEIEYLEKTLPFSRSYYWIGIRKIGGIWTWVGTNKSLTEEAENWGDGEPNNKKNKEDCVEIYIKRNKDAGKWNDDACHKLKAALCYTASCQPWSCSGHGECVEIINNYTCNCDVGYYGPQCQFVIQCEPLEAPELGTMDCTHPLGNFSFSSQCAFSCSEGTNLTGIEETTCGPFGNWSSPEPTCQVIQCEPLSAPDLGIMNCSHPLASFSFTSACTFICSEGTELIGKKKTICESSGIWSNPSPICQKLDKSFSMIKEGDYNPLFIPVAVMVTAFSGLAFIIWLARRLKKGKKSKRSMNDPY
The experiment in a line: flow; half-saturation, monomer. To be noted: hairpin. An excerpt:
A variety of monomeric nucleic acid ligands and multivalent Complexes have been examined in flow cytometry.

Data set [4] deals with T1, P-selectin (PS-Rg). The experiment in a line: filter; streptavidin complex. To be noted: tags: human IgG Fc fusion; chain copies: 2 (stated dimer).
Data set [5] addresses T1, P-selectin (PS-Rg). The experiment in a line: inhibition; sialyl-LewisX. To be noted: tags: human IgG Fc fusion; chain copies: 2 (stated dimer). As for the experimental part: as §1
The next data set addresses CD22beta (CD22b-Rg) (UniProt P20273 P20273:20-687). The experiment in a line: filter; no binding above background. To be noted: tags: human IgG1 Fc fusion; chain copies: 2 (inferred).
Data set [6] has as its target T2, L-selectin (LS-Rg). The experiment in a line: filter; affinity similar to full length LD201. As to conditions: tags: human IgG2 Fc fusion; chain copies: 2 (stated dimer).
Data set [7] addresses T2, L-selectin (LS-Rg). The experiment in a line: filter; affinity reduction versus full length LF1807; called LF1807T5 in Table 16. To be noted: tags: human IgG2 Fc fusion; chain copies: 2 (stated dimer). As for the experimental part:
as §2, §3

For data set [8], the target named is T3, L-selectin on PBMC / lymphocytes. The experiment in a line: flow; half-saturation; described as LD201T4 dumbell dimer. To be noted: label: fluorescein.
Data set [9] concerns the target T1, P-selectin (PS-Rg). The experiment in a line: filter; Table 21 gives 63 pM. To be noted: tags: human IgG Fc fusion; chain copies: 2 (stated dimer).
Data set [10] has as its target T2, L-selectin (LS-Rg). The experiment in a line: filter; room temperature; repeat of Table 13 (57 pM). To be noted: tags: human IgG2 Fc fusion; chain copies: 2 (stated dimer). As for the experimental part:
As described in SELEX Patent Applications and in Example 7, paragraph C, a nitrocellulose filter partitioning method was used to determine the affinity of ssDNA ligands for LS-Rg and for other proteins. For these experiments a Gibco BRL 96 well manifold was substituted for the 12 well Millipore manifold used in Example 7 and radioactivity was determined with a Fujix BAS100 phosphorimager. Bindin, data were analyzed as described in Example 7, paragraph C.

Data set [11] has as its target T3, L-selectin on PBMC / lymphocytes. The experiment in a line: flow; half-saturation; described as LD201T4 fork dimer. To be noted: label: fluorescein.
Data set [12] addresses T2, L-selectin (LS-Rg). The experiment in a line: filter; affinity similar to full length LD227. As to conditions: tags: human IgG2 Fc fusion; chain copies: 2 (stated dimer).
For data set [13], the target named is T1, P-selectin (PS-Rg). The experiment in a line: filter. To be noted: tags: human IgG Fc fusion; chain copies: 2 (stated dimer).
For a further data set, the target named is T4, soluble L-selectin (Homo sapiens, UniProt P14151 P14151:39-332).
T4 sequence: T2 sequence
The experiment in a line: filter; 37 C; table prints SEQ 339. To be noted: tags: R&D Systems. How it is done:
Unless otherwise indicated, all materials used in the 2′-F RNA SELEX against the L-selectin/IgG2 chimera, LS-Rg, were identical to those of Examples 7, paragraph A and 13, paragraph A. SHMCK-140 buffer, used for all SELEX and binding experiments, was 1 mM CaCl₂, 1 mM MgCC₂, 140 mM NaCl, 5 mM KCl. and 20 mM HEPES, pH 7.4. A soluble form of L-selectin, corresponding to the extracellular domains, was purchased from R&D Systems and used for some nitrocellulose filter binding experiments.
as §2

Bounds are passed on as bounds.

T1 sequence (P16109 42-321, one chain of several): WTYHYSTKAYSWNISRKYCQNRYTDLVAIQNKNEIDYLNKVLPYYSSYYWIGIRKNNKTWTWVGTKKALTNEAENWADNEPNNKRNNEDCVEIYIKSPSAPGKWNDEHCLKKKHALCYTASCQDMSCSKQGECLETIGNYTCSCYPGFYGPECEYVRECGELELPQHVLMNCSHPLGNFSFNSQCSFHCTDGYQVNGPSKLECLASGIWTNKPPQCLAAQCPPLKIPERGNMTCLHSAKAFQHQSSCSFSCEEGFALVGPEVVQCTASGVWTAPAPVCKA

B1: PF377 (ssRNA)
RNA: GGGAGACAAGAAUAAACGCUCAACGAGCCAGGAACAUCGACGUCAGCAAACGCGAGCGCAACCAGUAACACCUUCGACAGGAGGCUCACAACAGGC
modifications: 2'-F C and U
As to B1, half-maximal inhibition with P-selectin (PS-Rg) [1] (IC50) was put at 3 nM. That is a single-digit nanomolar value.

B2: LF1514T2 (ssRNA)
RNA: CUCAAAUUGCGUGUUUUCAAGCA
modifications: 2'-F C and U
B2 returned a binding signal with L-selectin (LS-Rg) [2] of at least 100 fold.

B3: LD201T4 (ssDNA)
DNA: CCAGTACAAGGTGCTAAACGTAATGG
For B3, the EC50 (in general, the concentration needed to bring the measured effect to its halfway point) in data set [3] stood at 20 nM.

B4: PF377s1B:SA (ssRNA)
RNA: CUCAACGAGCCAGGAACAUCGACGUCAGCAAACGCGAG
modifications: 2'-F C and U, biotin bound to streptavidin
B4: the Kd (in general, a measure of binding affinity in units of concentration) with P-selectin (PS-Rg) [4] is 0.03 nM.

B5: PA350 (ssRNA)
RNA: GGGAGACAAGAAUAAACGCUCAAGCCCCAAACGCAAGUGAGCAUCCGCAACAGGGAAGAAGACAGACGAUUGAUUCGACAGGAGGCUCACAACAGGC
modifications: 2'-NH2 C and U
For the molecule B5, the IC50 (usually the concentration that gives 50% inhibition) with P-selectin (PS-Rg) [5] amounted to 2 nM. Also, the binding result in the data set with CD22beta (CD22b-Rg) was “no binding”.

B6: LD201T10 (ssDNA)
DNA: CGCGGTAACCAGTACAAGGTGCTAAACGTAATGGCGCG
In the data set with L-selectin (LS-Rg) [6], B6 displayed a binding signal of about 1 fold.

B7: LF1807T4 (ssRNA)
RNA: GGAGUCUUAGGCAGCGCGUUUUCGAGCUACUCC
modifications: 2'-F C and U
In the case of B7, the binding signal with L-selectin (LS-Rg) [7] is about 3 fold.

B8: NX303 dumbell dimer (ssDNA)
DNA: TCCAGTACAAGGTGCTAAACGTAATGGTT
modifications: two copies on PEG 3400, 5' amino C6 dT, 3'-3' terminal [1 = 5' amino modifier C6 dT; 29 = 3'-3' terminal dT; two identical copies on PEG 3400 (PEG left out)]
Molecule B8 showed an EC50 in data set [8] of 0.1 nM. This lies in the sub-nanomolar range.

B9: PF398s1 (ssRNA)
RNA: CUCAACGAACCACGGGGAAAUCCACCAGUAACACGCGAG
modifications: 2'-F C and U
With B9, the affinity in the data set with P-selectin (PS-Rg) [9], expressed as Kd, was 0.178 nM. Also, inhibition with P-selectin (PS-Rg) [5] was half-maximal at 2 nM (IC50).

B10: LD230 (ssDNA)
DNA: CTACCTACGATCTGACTAGCTGCACACCTGAGGGTTACAAGGCGCTAGACGTAACCTCTCGCTTACTCTCATGTAGTTCC
In turn, B10 had a Kd with L-selectin (LS-Rg) [10] of 0.044 nM.

B11: NX303 fork dimer (ssDNA)
DNA: TCCAGTACAAGGTGCTAAACGTAATGGTT
modifications: two copies on forked 20 kDa PEG, 5' amino C6 dT, 3'-3' terminal [1 = 5' amino modifier C6 dT; 29 = 3'-3' terminal dT; two identical copies on forked 20 kDa PEG (PEG left out)]
On to B11, for which, in [11], the response was half-maximal at 0.6 nM (EC50).

B12: LD227X1 (ssDNA)
DNA: CGCGCGTTACAAGGTGCTAAACGTAACGTACTTGCTTACTCGCG
For the molecule B12, the binding signal in the data set with L-selectin (LS-Rg) [12] is about 1 fold.

B13: PF424s1 (ssRNA)
RNA: CUCAACGAGUUCACAUGGGAGCAAUCUCCGAAUAAACAACACGCGAG
modifications: 2'-F C and U
As to B13, binding with P-selectin (PS-Rg) [13] was characterised by a dissociation constant (Kd) of 0.178 nM. This counts as sub-nanomolar.

B14: LF1520 (ssRNA)
RNA: GGGAGGACGAUGCGGAUCGAUUUCAUGCGUUUUUCGAGUGACGAUCAGACGACUCGCCCGA
modifications: 2'-F C and U
Molecule B14 gave a Kd with soluble L-selectin of 0.5 nM.
